Measurements published in the Human Domainome abundance scans (Beltran et al. 2025).
± gives the uncertainty stated by the source.

B1: WW domain-binding protein 4, residues 8 to 43; numbered along this chain, O75554 (parent)
chain: QPKKFCDYCKCWIADNRPSVEFHERGKNHKENVAKR

Variants of: B1
Test: abundance fitness (aPCA) (normalised: wild type 0, dead -1); higher = more abundant; growth selection in yeast, the domain comes from the species named
Details: Homo sapiens

Abundance fitness: each site, then its substitutions
C9: L -1.13 ± 0.14; T -0.635 ± 0.16; M -1.23 ± 0.34; A -0.787 ± 0.073; W -1.2 ± 0.12; Q -0.701 ± 0.12; E -0.603 ± 0.098; G -0.525 ± 0.061; K -0.983 ± 0.34; V -1.28 ± 0.14; D -0.541 ± 0.11; S -0.116 ± 0.13
K4: Q -0.245 ± 0.085; N -0.226 ± 0.1; C -0.453 ± 0.09; L -0.366 ± 0.072; S -0.212 ± 0.092; A -0.291 ± 0.063; E -0.355 ± 0.08; D -0.573 ± 0.15; W -1.03 ± 0.075; G -0.497 ± 0.07; T -0.022 ± 0.18; R -0.374 ± 0.066; F -0.177 ± 0.16; V -0.507 ± 0.07; M 0.13 ± 0.082
D7: Q -0.113 ± 0.097; M -0.241 ± 0.37; T 0.154 ± 0.13; V -0.6 ± 0.1; Y -0.286 ± 0.33; K -0.272 ± 0.16; G -0.173 ± 0.069; L -0.209 ± 0.12; P -0.529 ± 0.2; S -0.131 ± 0.23; W -0.649 ± 0.12; E 0.007 ± 0.11
S19: W -0.672 ± 0.089; C -0.516 ± 0.12; Q -0.218 ± 0.094; L -0.467 ± 0.062; N -0.204 ± 0.11; M -0.07 ± 0.1; E -0.245 ± 0.074; D -0.13 ± 0.082; R -0.574 ± 0.063; K -0.379 ± 0.097; F -0.797 ± 0.27; V -0.451 ± 0.071; T -0.079 ± 0.078; G -0.3 ± 0.065; H -0.269 ± 0.29; A -0.058 ± 0.065
W12: C -0.437 ± 0.097; H 0.339 ± 0.3; L -0.087 ± 0.068; K -0.557 ± 0.14; A -0.209 ± 0.078; E -0.238 ± 0.083; R -0.537 ± 0.064; M 0.075 ± 0.11; I 0.139 ± 0.15; S -0.261 ± 0.081; P 0.188 ± 0.22; F -0.165 ± 0.24; D -0.219 ± 0.079; Q 0.077 ± 0.12; G -0.331 ± 0.06; T -0.066 ± 0.079
E24: T -0.549 ± 0.21; N -0.163 ± 0.11; P -0.915 ± 0.091; M -0.451 ± 0.15; A -0.303 ± 0.072; G -0.364 ± 0.058; F -0.181 ± 0.32; D -0.372 ± 0.15; Y -0.183 ± 0.21; S -0.232 ± 0.078; L -0.614 ± 0.098; K -0.187 ± 0.14; R -0.497 ± 0.06; W -0.413 ± 0.079
P18: M -0.002 ± 0.073; G -0.179 ± 0.066; C -0.113 ± 0.086; E -0.048 ± 0.073; A -0.108 ± 0.061; K -0.175 ± 0.13; V -0.198 ± 0.069; S -0.192 ± 0.086; D -0.388 ± 0.27; Y -0.194 ± 0.096; H -0.124 ± 0.14; L -0.236 ± 0.071; I -0.349 ± 0.12; Q -0.12 ± 0.083; R -0.162 ± 0.059; N -0.177 ± 0.1; F -0.431 ± 0.46; T -0.381 ± 0.14; W -0.522 ± 0.092
R17: E -0.011 ± 0.067; G 0.005 ± 0.061; N -0.019 ± 0.11; P 0.253 ± 0.078; S 0.052 ± 0.073; H -0.148 ± 0.14; K -0.098 ± 0.15; L -0.015 ± 0.073; T -0.03 ± 0.11; Y -0.235 ± 0.11; C 0.118 ± 0.099; A 0.036 ± 0.063; V 0.008 ± 0.067; W -0.389 ± 0.074; Q -0.008 ± 0.12; M 0.176 ± 0.085; D 0.068 ± 0.096
F5: M -0.085 ± 0.18; A -0.261 ± 0.063; R -0.465 ± 0.068; W -1.06 ± 0.087; N -0.174 ± 0.1; G -0.786 ± 0.066; P -0.551 ± 0.1; V -0.565 ± 0.083; Q -0.328 ± 0.084; E -0.356 ± 0.072; D -0.533 ± 0.13; Y -0.087 ± 0.17; K -0.502 ± 0.09; S -0.468 ± 0.087; I -0.379 ± 0.12
F22: Q 0.238 ± 0.081; R -0.075 ± 0.064; M 0.235 ± 0.089; I -0.33 ± 0.14; G 0.111 ± 0.059; Y -0.224 ± 0.12; T 0.163 ± 0.074; C 0.089 ± 0.1; E 0.07 ± 0.085; D 0.132 ± 0.17; P -0.061 ± 0.1; S -0.01 ± 0.075; N -0.035 ± 0.17; A 0.09 ± 0.08; K -0.129 ± 0.12; V 0.085 ± 0.056; L 0.051 ± 0.073
C11: F -0.417 ± 0.14; W -0.589 ± 0.12; T 0.087 ± 0.17; I 0.002 ± 0.098; S 0.101 ± 0.075; A 0.052 ± 0.066; K -0.066 ± 0.099; D 0.144 ± 0.16; H -0.335 ± 0.27; L -0.045 ± 0.078; M 0.084 ± 0.14; P -0.475 ± 0.12; Q 0.139 ± 0.09; G -0.059 ± 0.065; V 0.066 ± 0.068
E21: L -0.19 ± 0.069; S -0.167 ± 0.074; Q -0.074 ± 0.085; D -0.15 ± 0.093; R -0.05 ± 0.059; F -0.437 ± 0.25; H -0.475 ± 0.32; C -0.36 ± 0.094; K 0.007 ± 0.07; W -0.295 ± 0.07; T -0.034 ± 0.085; P -0.467 ± 0.096; M -0.332 ± 0.11; N -0.312 ± 0.11; V -0.289 ± 0.062; A -0.163 ± 0.063; I -0.71 ± 0.36
D15: T -0.075 ± 0.096; H -0.37 ± 0.24; A -0.145 ± 0.07; P -0.186 ± 0.083; N -0.249 ± 0.29; F -0.235 ± 0.11; K -0.367 ± 0.092; M -0.128 ± 0.17; V -0.313 ± 0.068; R -0.328 ± 0.068; W -0.391 ± 0.065; S -0.236 ± 0.074; C -0.48 ± 0.086; L -0.332 ± 0.08; Q -0.262 ± 0.27; G -0.09 ± 0.055
H23: K -0.44 ± 0.15; P -0.443 ± 0.11; S -0.549 ± 0.076; D -0.387 ± 0.13; F -0.633 ± 0.4; C -0.561 ± 0.11; G -0.689 ± 0.063; T -0.717 ± 0.11; V -0.895 ± 0.094; L -0.838 ± 0.082; R -0.724 ± 0.061; W -0.601 ± 0.12; N -0.967 ± 0.27; A -0.739 ± 0.083; I -0.884 ± 0.41; E -0.6 ± 0.15; M -0.569 ± 0.17
N16: G 0.151 ± 0.055; M 0.024 ± 0.084; K 0.102 ± 0.12; V -0.14 ± 0.057; E 0.027 ± 0.082; R -0.141 ± 0.061; F -0.143 ± 0.36; I 0.321 ± 0.19; S -0.177 ± 0.082; T 0.185 ± 0.067; A 0.135 ± 0.064; Q -0.073 ± 0.094; D -0.233 ± 0.11; Y -0.06 ± 0.14; H -0.105 ± 0.091; L -0.175 ± 0.065; W -0.268 ± 0.065; P 0.018 ± 0.078
I13: A -0.531 ± 0.091; V -0.089 ± 0.12; C -0.427 ± 0.074; Q -0.529 ± 0.085; Y 0.334 ± 0.19; K -0.853 ± 0.12; N -0.308 ± 0.16; L -0.236 ± 0.078; G -0.449 ± 0.071; H -0.368 ± 0.12; M 0.209 ± 0.082; T -0.261 ± 0.096; E -0.226 ± 0.08; S -0.473 ± 0.085; R -0.532 ± 0.077; D -0.171 ± 0.18; P -0.488 ± 0.069
Y8: R -0.12 ± 0.062; G -0.224 ± 0.06; P 0.343 ± 0.096; K -0.309 ± 0.083; C -0.269 ± 0.12; T -0.07 ± 0.084; W -0.118 ± 0.079; V -0.249 ± 0.074; M 0.054 ± 0.093; D 0.129 ± 0.15; L -0.26 ± 0.1; E 0.048 ± 0.096; S -0.448 ± 0.19
V20: R -0.226 ± 0.068; D -0.591 ± 0.17; C -0.574 ± 0.12; I -0.275 ± 0.2; E -0.127 ± 0.065; Q -0.254 ± 0.084; M -0.015 ± 0.4; N -0.033 ± 0.17; L -0.314 ± 0.069; T -0.183 ± 0.12; P -0.512 ± 0.083; Y -0.63 ± 0.14; A 0.05 ± 0.069; F -0.442 ± 0.22; S -0.336 ± 0.081; G -0.272 ± 0.067; W -0.189 ± 0.077; H -0.031 ± 0.15
K10: Y 0.002 ± 0.33; C -0.325 ± 0.092; P -0.482 ± 0.23; S -0.151 ± 0.079; V -0.551 ± 0.088; Q -0.146 ± 0.1; D 0.061 ± 0.18; F -0.409 ± 0.21; E -0.134 ± 0.097; N -0.149 ± 0.16; A -0.126 ± 0.058; W -0.748 ± 0.091; R -0.088 ± 0.064; M -0.34 ± 0.25
R25: E -0.039 ± 0.07; P -0.428 ± 0.072; C -0.133 ± 0.097; L -0.106 ± 0.066; G 0.039 ± 0.061; A 0.078 ± 0.064; M 0.079 ± 0.086; D 0.099 ± 0.095; K 0 ± 0.078
C6: F -0.653 ± 0.17; E -0.546 ± 0.079; N -0.919 ± 0.33; R -0.691 ± 0.071; L -0.862 ± 0.098; P -0.466 ± 0.084; S -0.615 ± 0.077; K -0.216 ± 0.26; A -0.471 ± 0.07; W -1 ± 0.13; G -1.07 ± 0.062; T -0.521 ± 0.085; V -0.756 ± 0.083; M -0.654 ± 0.09
A14: S -0.343 ± 0.082; E -0.048 ± 0.098; R -0.381 ± 0.07; W -0.338 ± 0.076; K -0.251 ± 0.091; Q -0.264 ± 0.28; P -0.19 ± 0.082; D -0.2 ± 0.1; V -0.39 ± 0.077; L -0.558 ± 0.074; G -0.286 ± 0.061; C -0.169 ± 0.1; M -0.602 ± 0.14
